tested on: Escherichia coli TOP10; test: shrunken log2 fold change of peptide-encoding DNA abundance (4.5 h post-induction vs induction); higher = less antimicrobial activity (less host growth inhibition); details: time post-induction: 4.5 h; library: site-saturation at positions 5, 18, 19, 20
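Further: peptides expressed intracellularly from a pBAD plasmid library in pooled LB shake-flask culture, induced with 0.3% L-arabinose, DNA abundance read by NGS, three biological replicates, DESeq2 with apeglm shrinkage.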

Compared with RRIRPRPPRLPRPRPRPNYHPRP, RRIRLRPPRLPRPRPRPGEEPRP is higher in “shrunken log2 fold change” value: -0.607 for the first, 0.143 for the second.

First: RRIRGRPPRLPRPRPRPCALPRP
Second: RRIRVRPPRLPRPRPRPLIRPRP
The “shrunken log2 fold change” value of the first is higher: 0.594 for the first, -0.352 for the second.

RRIRGRPPRLPRPRPRPIYKPRP and RRIRIRPPRLPRPRPRPICPPRP are within 0.2 log units of each other in “shrunken log2 fold change” value: -0.071 for the first, 0.0188 for the second.

Compared with RRIRLRPPRLPRPRPRPTRPPRP, RRIRWRPPRLPRPRPRPQFCPRP is lower in “shrunken log2 fold change” value: 0.828 for the first, -0.0503 for the second.

Going from RRIRVRPPRLPRPRPRPEYMPRP to RRIRMRPPRLPRPRPRPKMQPRP, the “shrunken log2 fold change” value rises from -0.305 to 0.995.

RRIRDRPPRLPRPRPRPFEVPRP and RRIRHRPPRLPRPRPRPAPDPRP are within 0.2 log units of each other in “shrunken log2 fold change” value: -0.0211 for the first, -0.0192 for the second.

Compared with RRIRERPPRLPRPRPRPPQTPRP, RRIRVRPPRLPRPRPRPYHGPRP is lower in “shrunken log2 fold change” value: 0.223 for the first, -0.237 for the second.

Going from RRIRNRPPRLPRPRPRPLNRPRP to RRIRARPPRLPRPRPRPDKGPRP, the “shrunken log2 fold change” value rises from -0.327 to 0.168.

Going from RRIRKRPPRLPRPRPRPNTVPRP to RRIRMRPPRLPRPRPRPYVPPRP, the “shrunken log2 fold change” value falls from 0.126 to -0.584.

Compared with RRIRNRPPRLPRPRPRPAPPPRP, RRIRYRPPRLPRPRPRPGFVPRP is lower in “shrunken log2 fold change” value: 0.584 for the first, 0.0168 for the second.

RRIRFRPPRLPRPRPRPIKMPRP and RRIRLRPPRLPRPRPRPHGMPRP are within 0.2 log units of each other in “shrunken log2 fold change” value: -0.243 for the first, -0.177 for the second.

RRIRERPPRLPRPRPRPSYFPRP and RRIRPRPPRLPRPRPRPQDMPRP are within 0.2 log units of each other in “shrunken log2 fold change” value: -0.48 for the first, -0.39 for the second.

Going from RRIRGRPPRLPRPRPRPILNPRP to RRIRMRPPRLPRPRPRPLPQPRP, the “shrunken log2 fold change” value rises from -0.0611 to 0.742.

First: RRIRIRPPRLPRPRPRPHENPRP
Second: RRIRKRPPRLPRPRPRPFCHPRP
The “shrunken log2 fold change” value of the first is lower: -0.581 for the first, 0.00474 for the second.

RRIRMRPPRLPRPRPRPKMIPRP and RRIRCRPPRLPRPRPRPCQCPRP are within 0.2 log units of each other in “shrunken log2 fold change” value: -0.0167 for the first, -0.208 for the second.

RRIRERPPRLPRPRPRPHTTPRP and RRIRLRPPRLPRPRPRPGKGPRP are within 0.2 log units of each other in “shrunken log2 fold change” value: -0.205 for the first, -0.0192 for the second.

RRIRKRPPRLPRPRPRPHWHPRP and RRIRMRPPRLPRPRPRPMCNPRP are within 0.2 log units of each other in “shrunken log2 fold change” value: -0.0666 for the first, -0.00494 for the second.

First: RRIRCRPPRLPRPRPRPTIHPRP
Second: RRIRHRPPRLPRPRPRPYPSPRP
The “shrunken log2 fold change” value of the first is lower: -0.883 for the first, -0.457 for the second.

Compared with RRIRMRPPRLPRPRPRPDNDPRP, RRIRDRPPRLPRPRPRPHTAPRP is lower in “shrunken log2 fold change” value: 1.41 for the first, -0.0443 for the second.

RRIRERPPRLPRPRPRPEQDPRP and RRIRWRPPRLPRPRPRPGQTPRP are within 0.2 log units of each other in “shrunken log2 fold change” value: -0.0751 for the first, -0.0122 for the second.

RRIRNRPPRLPRPRPRPFPGPRP and RRIRKRPPRLPRPRPRPQTWPRP are within 0.2 log units of each other in “shrunken log2 fold change” value: -0.00992 for the first, 0.134 for the second.

Going from RRIRHRPPRLPRPRPRPVCIPRP to RRIRKRPPRLPRPRPRPPRLPRP, the “shrunken log2 fold change” value rises from -1.22 to 0.678.

RRIRPRPPRLPRPRPRPNRHPRP and RRIRKRPPRLPRPRPRPSYRPRP are within 0.2 log units of each other in “shrunken log2 fold change” value: -0.0624 for the first, 0.0249 for the second.

RRIRIRPPRLPRPRPRPVDYPRP and RRIRERPPRLPRPRPRPAGHPRP are within 0.2 log units of each other in “shrunken log2 fold change” value: -0.0672 for the first, 0.0849 for the second.

Going from RRIRWRPPRLPRPRPRPTGCPRP to RRIRGRPPRLPRPRPRPLRCPRP, the “shrunken log2 fold change” value rises from 0.141 to 0.58.

First: RRIRKRPPRLPRPRPRPNCFPRP
Second: RRIRHRPPRLPRPRPRPTYFPRP
The “shrunken log2 fold change” value of the first is higher: 0.274 for the first, -0.309 for the second.

RRIRPRPPRLPRPRPRPWFFPRP and RRIRLRPPRLPRPRPRPATSPRP are within 0.2 log units of each other in “shrunken log2 fold change” value: -0.185 for the first, -0.149 for the second.

RRIRLRPPRLPRPRPRPYTYPRP and RRIRPRPPRLPRPRPRPQDVPRP are within 0.2 log units of each other in “shrunken log2 fold change” value: -0.235 for the first, -0.373 for the second.

RRIRFRPPRLPRPRPRPHHFPRP and RRIRRRPPRLPRPRPRPMIVPRP are within 0.2 log units of each other in “shrunken log2 fold change” value: -0.053 for the first, 0.00521 for the second.

Going from RRIRYRPPRLPRPRPRPDSGPRP to RRIRARPPRLPRPRPRPHAVPRP, the “shrunken log2 fold change” value rises from -0.0811 to 0.123.

RRIRQRPPRLPRPRPRPWVQPRP and RRIRNRPPRLPRPRPRPWIDPRP are within 0.2 log units of each other in “shrunken log2 fold change” value: -0.0131 for the first, -0.0152 for the second.

Compared with RRIRFRPPRLPRPRPRPAEFPRP, RRIRIRPPRLPRPRPRPMMIPRP is lower in “shrunken log2 fold change” value: 1.14 for the first, -0.0366 for the second.

First: RRIRWRPPRLPRPRPRPLFYPRP
Second: RRIRKRPPRLPRPRPRPSYGPRP
The “shrunken log2 fold change” value of the first is lower: -0.427 for the first, -0.141 for the second.

RRIRFRPPRLPRPRPRPEAIPRP and RRIRGRPPRLPRPRPRPHQIPRP are within 0.2 log units of each other in “shrunken log2 fold change” value: 0.104 for the first, 0.103 for the second.

Compared with RRIRSRPPRLPRPRPRPQSLPRP, RRIRKRPPRLPRPRPRPFEYPRP is higher in “shrunken log2 fold change” value: -0.232 for the first, -0.00133 for the second.

Compared with RRIRVRPPRLPRPRPRPWWPPRP, RRIRSRPPRLPRPRPRPKYKPRP is lower in “shrunken log2 fold change” value: 0.162 for the first, -0.422 for the second.

Going from RRIRVRPPRLPRPRPRPTVAPRP to RRIRPRPPRLPRPRPRPAQYPRP, the “shrunken log2 fold change” value falls from 0.37 to 0.0469.

RRIRRRPPRLPRPRPRPDKWPRP and RRIRMRPPRLPRPRPRPAEYPRP are within 0.2 log units of each other in “shrunken log2 fold change” value: 0.107 for the first, 0.0354 for the second.

RRIRLRPPRLPRPRPRPICYPRP and RRIRFRPPRLPRPRPRPLYAPRP are within 0.2 log units of each other in “shrunken log2 fold change” value: -0.284 for the first, -0.119 for the second.

First: RRIRARPPRLPRPRPRPRMAPRP
Second: RRIRERPPRLPRPRPRPLTMPRP
The “shrunken log2 fold change” value of the first is higher: 0.479 for the first, -0.308 for the second.

Going from RRIRGRPPRLPRPRPRPGNVPRP to RRIRWRPPRLPRPRPRPIKIPRP, the “shrunken log2 fold change” value falls from 0.22 to -0.0625.

RRIRQRPPRLPRPRPRPLGLPRP and RRIRSRPPRLPRPRPRPQLKPRP are within 0.2 log units of each other in “shrunken log2 fold change” value: 0.103 for the first, 0.0348 for the second.

Compared with RRIRSRPPRLPRPRPRPYFDPRP, RRIRERPPRLPRPRPRPIGFPRP is higher in “shrunken log2 fold change” value: -0.597 for the first, -0.134 for the second.

First: RRIRRRPPRLPRPRPRPYMYPRP
Second: RRIRTRPPRLPRPRPRPGGPPRP
The “shrunken log2 fold change” value of the first is lower: -0.74 for the first, 0.257 for the second.

Compared with RRIRYRPPRLPRPRPRPLHSPRP, RRIRDRPPRLPRPRPRPYNSPRP is higher in “shrunken log2 fold change” value: -0.803 for the first, -0.237 for the second.

Going from RRIRARPPRLPRPRPRPQWLPRP to RRIRLRPPRLPRPRPRPYMYPRP, the “shrunken log2 fold change” value falls from 0.144 to -0.759.

Compared with RRIRCRPPRLPRPRPRPHYPPRP, RRIRVRPPRLPRPRPRPKWNPRP is higher in “shrunken log2 fold change” value: -0.902 for the first, -0.172 for the second.

RRIRDRPPRLPRPRPRPWNHPRP and RRIRARPPRLPRPRPRPGSLPRP are within 0.2 log units of each other in “shrunken log2 fold change” value: -0.00185 for the first, 0.056 for the second.

First: RRIRCRPPRLPRPRPRPHDTPRP
Second: RRIRVRPPRLPRPRPRPVCTPRP
The “shrunken log2 fold change” value of the first is lower: -0.427 for the first, 0.165 for the second.

Compared with RRIRARPPRLPRPRPRPPSCPRP, RRIRIRPPRLPRPRPRPCHSPRP is lower in “shrunken log2 fold change” value: 0.503 for the first, 0.00888 for the second.

Going from RRIRMRPPRLPRPRPRPNRIPRP to RRIRHRPPRLPRPRPRPHNKPRP, the “shrunken log2 fold change” value falls from -0.18 to -0.866.

RRIRARPPRLPRPRPRPWELPRP and RRIRRRPPRLPRPRPRPIFCPRP are within 0.2 log units of each other in “shrunken log2 fold change” value: 0.0412 for the first, 0.0473 for the second.

Going from RRIRHRPPRLPRPRPRPGDVPRP to RRIRGRPPRLPRPRPRPMCHPRP, the “shrunken log2 fold change” value rises from -0.16 to 0.874.

Compared with RRIRPRPPRLPRPRPRPRAEPRP, RRIRWRPPRLPRPRPRPEEGPRP is lower in “shrunken log2 fold change” value: 0.526 for the first, -0.00968 for the second.

With RRIRTRPPRLPRPRPRPEHFPRP the “shrunken log2 fold change” value was -0.115.
